{
  "source": "patent US8962819B2",
  "about": "“Anti-C5 alpha antibodies” (Adienne S.A., priority 2002, dated 2015)",
  "molecular_target": "T1, C5 (Homo sapiens, UniProt P01031)",
  "T1 construct": "C5 alpha and beta subunits were obtained by incubating 50 μg of C5; purchased Quidel",
  "T1 sequence (P01031 678-1676 limits assumed)": "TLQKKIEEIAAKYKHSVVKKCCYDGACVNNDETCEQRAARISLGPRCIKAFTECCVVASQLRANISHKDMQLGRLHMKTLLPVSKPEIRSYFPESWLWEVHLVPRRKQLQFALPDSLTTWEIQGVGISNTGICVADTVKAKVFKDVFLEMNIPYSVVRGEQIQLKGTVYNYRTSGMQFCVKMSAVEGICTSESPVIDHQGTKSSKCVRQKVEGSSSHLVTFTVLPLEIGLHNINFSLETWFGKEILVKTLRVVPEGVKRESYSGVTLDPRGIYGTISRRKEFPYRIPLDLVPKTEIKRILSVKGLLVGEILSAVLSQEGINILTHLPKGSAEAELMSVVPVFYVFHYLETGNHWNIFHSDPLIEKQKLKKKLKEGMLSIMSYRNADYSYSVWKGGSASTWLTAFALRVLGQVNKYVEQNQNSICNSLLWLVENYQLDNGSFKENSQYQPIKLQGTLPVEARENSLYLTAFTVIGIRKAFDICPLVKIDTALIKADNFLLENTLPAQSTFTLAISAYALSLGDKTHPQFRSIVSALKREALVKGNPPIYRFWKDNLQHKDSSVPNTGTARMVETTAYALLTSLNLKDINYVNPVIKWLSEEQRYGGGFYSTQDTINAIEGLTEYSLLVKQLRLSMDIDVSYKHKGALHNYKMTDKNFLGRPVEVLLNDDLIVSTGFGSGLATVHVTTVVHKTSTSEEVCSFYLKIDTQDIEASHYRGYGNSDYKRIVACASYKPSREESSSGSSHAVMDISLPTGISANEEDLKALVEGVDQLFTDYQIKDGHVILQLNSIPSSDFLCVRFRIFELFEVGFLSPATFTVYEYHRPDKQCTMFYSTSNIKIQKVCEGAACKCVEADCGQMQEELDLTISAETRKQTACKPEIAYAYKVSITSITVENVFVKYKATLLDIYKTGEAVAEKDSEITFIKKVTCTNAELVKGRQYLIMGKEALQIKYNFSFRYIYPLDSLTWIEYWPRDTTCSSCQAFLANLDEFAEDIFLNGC",
  "T1 sequence (P01031 19-673 partner limits assumed)": "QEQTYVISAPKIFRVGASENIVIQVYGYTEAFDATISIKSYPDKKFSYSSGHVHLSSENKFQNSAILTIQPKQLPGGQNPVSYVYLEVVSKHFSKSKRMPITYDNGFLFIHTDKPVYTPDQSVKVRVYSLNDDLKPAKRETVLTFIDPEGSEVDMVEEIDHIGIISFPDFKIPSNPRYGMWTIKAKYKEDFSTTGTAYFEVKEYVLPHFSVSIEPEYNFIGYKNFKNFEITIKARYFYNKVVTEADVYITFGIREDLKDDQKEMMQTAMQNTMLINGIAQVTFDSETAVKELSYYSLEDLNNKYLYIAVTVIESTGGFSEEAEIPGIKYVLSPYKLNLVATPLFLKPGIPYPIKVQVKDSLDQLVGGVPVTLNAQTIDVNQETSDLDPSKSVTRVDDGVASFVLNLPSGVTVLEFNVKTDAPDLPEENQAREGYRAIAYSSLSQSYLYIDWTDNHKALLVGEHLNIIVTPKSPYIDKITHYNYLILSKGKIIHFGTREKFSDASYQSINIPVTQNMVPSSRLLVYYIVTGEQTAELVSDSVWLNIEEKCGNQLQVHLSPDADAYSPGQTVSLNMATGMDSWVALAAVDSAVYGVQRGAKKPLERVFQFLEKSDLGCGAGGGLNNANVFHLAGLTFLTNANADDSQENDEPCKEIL",
  "assay": "Haemolytic assay / TCC ELISA with EAC1-3b sheep erythrocytes and C5 depleted serum",
  "type": "biochemical",
  "settings": "FIG. 1B",
  "protocol": "Panel A) The ELISA assay measures the amount of C5a fragment released in the supernatant after enzymatic cleavage of C5, using antibodies anti-C5 as described in example 6. […] Sheep erythrocytes sensitised with antibodies and coated until the C3b (EAC1-3b) complement step were added to the mixture of TS-A12 or TS-A12/22 and C5, and the mixture was further incubated for 30 minutes at 37° C. (panel B).\nSheep erythrocytes (SBRC: Sheep red blood cells) were sensitised with sub-agglutinating amounts of rabbit IgM (EA). […]\nThe obtained anti-C5 scFv fragments were further characterised for their ability to inhibit the hemolytic activity of C5 or, in other words, to block conversion of the C5 component to C5a. […] At the end of this procedure, cell lysis was measured as percentage of the control of total lysis in distilled H2O (see FIG. 1, panel B). The inhibition of C5a and TCC production by the scFv TS-A12 and TS-A12/22 was measured by means of ELISA using the monoclonal antibody 17/5 as the capture antibody and antibody G25/2 as detection antibody according to what has been described in Opperman et al., 1991, Complement Inflamm. […] The presence of TCC was measured using antibody aE11 as the capture antibody and a biotinylated anti-C5 antibody (SIGMA-ALDRICH®) followed by alkaline phosphatase-conjugated streptavidin, as described by Tedesco et al. (1997, J Exp. Med. 185:1619).",
  "data": [
    {"molecule": "TS-A12/22: anti-C5 scFv obtained from TS-A12 by VL chain shuffling; VH3/V-48 and Vλ3/V2-14; amino acid sequence SEQ ID NO:6 (protein, listed as Homo sapiens) scFv: DIRMTQSPDSLAVSLGERATINCKSSQSVLYSSNNKNYLAWYQQKPGQPPKLLIYWASTRESGVPDRFSGSGSGTDFTLTISSLQAEDVAVYYCQQYYSTPQLTFGGRTKVDIKSGGSTITSYNVYYTKLSSSGTQVQLQQSEGGVVQPGRSLRLSCAASGFTFSSYGMNWVRQAPGKGLEWVSYISSSSSTIYYADSVKGRFTISRDNSKNTLYLQMNSLRAEDTAVYYCARGPGMDVWGQGTTVTVSS", "values": [
      {"measurement": "inhibition of formation of TCC", "result": "inhibit almost completely"}
    ]}
  ]
}
